The labels stand for the following.
B1: LINE1-full (parent)
chain: UACGUAGGUGGUUUUCCCCUGAUAGUGCUAAGGGGGCCUGGAAGUUUGGACUGGGCAGAGCUCAACACAGCGUGGCAAAGUGGCUGUGGCUAGACUGCCUCUCUGGAUUCCUCGUCACUCAGCAGGGCAUCUCUGAGAGAAAUGCC

20 variants from the RNAGym collection of RNA variant scans (doi:10.7554/elife.90254) can be followed below.

Variants of B1 are the subject of this data set. Put plainly: self-cleavage, relative activity (ratio to wild type); higher = more cleavage; in vitro, sequencing; the parent is a self-cleaving ribozyme.
Turning to UACGUAGGUGGUUUUCCCCUGAUAGUGCUAAGGGGCCCUGGAAGUUUGGACUGGGCAGAGCUCAACACAGCGUGGCAAAGUUGCUGUGGCUAGACUGCCUCUCUGGAUUCCUCGUCACUCAGCAGGGCAUCUCUGAGAGAAAUGCC [G36C G82U], the self-cleavage amounted to 1.65.

As for UACGUAGGUGGUUUUCCCCUGAUAGUGCUAAGGGGUCCUGGAAGUUUGGACUGGGCAGAGCUCAACACGGCGUGGCAAAGUGGCUGUGGCUAGACUGCCUCUCUGGAUUCCUCGUCACUCAGCAGGGCAUCUCUGAGAGAAAUGCC [G36U A69G], the self-cleavage is 0.

Consider UACGUAGGUGGUUUUCCCCUGAUAGUGCUAAGGGGCCCUGGAAGUUUGGACUGGGCAGAGCUCAACACAGCGUGGCAAAGUGGCCGUGGCUAGACUGCCUCUCUGGAUUCCUCGUCACUCAGCAGGGCAUCUCUGAGAGAAAUGCC [G36C U85C], for which the self-cleavage worked out at 0.16.

For the variant UACGUAGGUGGUUUUCCCCUGAUAGUGCUAAGGGGCCCUGGAAGUUUGGACUGGGCAGAGCUCAACACAGCGUGGCAAAGUGGCUGUGGCUAGACUGCCUCUCUGGAUUCCUCGUCACUCAGCAGGGCAUCCCUGAGAGAAAUGCC [G36C U132C], the self-cleavage was 1.27.

With UACGUAGGUGGUUUUCCCCUGAUAGUGCUAAGGGGUCCUGGAUGUUUGGACUGGGCAGAGCUCAACACAGCGUGGCAAAGUGGCUGUGGCUAGACUGCCUCUCUGGAUUCCUCGUCACUCAGCAGGGCAUCUCUGAGAGAAAUGCC [G36U A43U], the self-cleavage was found to be 1.24.

UACGUAGGUGGUUUUCCCCUGAUAGUGCUAAGGGGUCCUGGAAGUUUGGACUGGGCAGAGCUCAACACAGCGUGGCGAAGUGGCUGUGGCUAGACUGCCUCUCUGGAUUCCUCGUCACUCAGCAGGGCAUCUCUGAGAGAAAUGCC [G36U A77G]: the self-cleavage came to 2.39.

On to UACGUAGGUGGUUUUCCCCUGAUAGUGCUAAGGGGCCCUGGAAGUUUGGACUGGGCAGAGCUCAACACAGCGUGGCAAAGUGGCUGUGGCUAGACCGCCUCUCUGGAUUCCUCGUCACUCAGCAGGGCAUCUCUGAGAGAAAUGCC [G36C U96C], for which the self-cleavage was determined as 0.17.

Regarding UACGUAGGUGGUUUUCCCCUGAUAGUGCUAAGGGGCCCUGGAAGUUUGGACUGGGCAGAGCUCAACACAGCGUGGCAAAGUGGCUGUGGCCAGACUGCCUCUCUGGAUUCCUCGUCACUCAGCAGGGCAUCUCUGAGAGAAAUGCC [G36C U91C], the self-cleavage amounted to 0.51.

UACGUAGGUGGUUUUCCCCUGAUAGUGCUAAGGGGUCCUGGAAGUUUGGACCGGGCAGAGCUCAACACAGCGUGGCAAAGUGGCUGUGGCUAGACUGCCUCUCUGGAUUCCUCGUCACUCAGCAGGGCAUCUCUGAGAGAAAUGCC [G36U U52C]: the self-cleavage came out at 1.19.

Turning to UACGUAGGUGGUUUUCCCCUGAUAGUGCUAAGGGGUCCUGGAAGUUUGGACUGGGCAGAGCUCAACACAGCGUGGCAAAGUGGCUGUGGCUAGACUGCCUCUCUGGAUUCCUCGUCACUCAGCAGGGCAUCUCUGAGAGGAAUGCC [G36U A140G], the self-cleavage came to 1.18.

For UACGUAGGUGGUUUUCCCCUGAUAGUGCUAAGGGGUCCUGGAAGUUUGGACUGGGCAGAGCUCAACACAGCGUGGCAAGGUGGCUGUGGCUAGACUGCCUCUCUGGAUUCCUCGUCACUCAGCAGGGCAUCUCUGAGAGAAAUGCC [G36U A79G], the self-cleavage came out at 1.3.

In the case of UACGUAGGUGGUUUUCCCCUGAUAGUGCUAAGGGGCCCUGGAAGUUUGGACUGGGCAGAGCUCAACACAGCGUGGCAAAGUGGCUGUGGCUAGACUGCCUCUCAGGAUUCCUCGUCACUCAGCAGGGCAUCUCUGAGAGAAAUGCC [G36C U104A], the self-cleavage is 1.43.

In the case of UACGUAGGUGGUUUUCCCCUGAUAGUGCUAAGGGGCCCUGGAAGCUUGGACUGGGCAGAGCUCAACACAGCGUGGCAAAGUGGCUGUGGCUAGACUGCCUCUCUGGAUUCCUCGUCACUCAGCAGGGCAUCUCUGAGAGAAAUGCC [G36C U45C], the self-cleavage was determined as 1.05.

For UACGUAGGUGGUUUUCCCCUGAUAGUGCUAAGGGGCCCUGGAAGUUUGGACUGGGCAGAGCUCAACACAGCGUGGCAAAGUGGCUGAGGCUAGACUGCCUCUCUGGAUUCCUCGUCACUCAGCAGGGCAUCUCUGAGAGAAAUGCC [G36C U87A], the self-cleavage worked out at 0.14.

For UACGUAGGUGGUUUUCCCCUGAUAGUGCUAAGGGGUCCUGGAAGUUUGGACUGGGCAGAGCUCAACACAGCGUGGCAGAGUGGCUGUGGCUAGACUGCCUCUCUGGAUUCCUCGUCACUCAGCAGGGCAUCUCUGAGAGAAAUGCC [G36U A78G], the self-cleavage was found to be 1.5.

As for UACGUAGGUGGUUUUCCCCUGAUAGUGCUAAGGGGCCCUGGAAGUUUGGACUGGGCAGAGCUCAACACAGCGUGGCAAAGUGGCUGUGGCUAGACUGCCUCUCUGGAUUCCUCGUCACUCAGCAGGGCAUCUCUGAGAGAAACGCC [G36C U143C], the self-cleavage stood at 1.43.

Turning to UACGUAGGUGGUUUUCCCCUGAUAGUGCUAAGGGGCCCUGGAAGUUCGGACUGGGCAGAGCUCAACACAGCGUGGCAAAGUGGCUGUGGCUAGACUGCCUCUCUGGAUUCCUCGUCACUCAGCAGGGCAUCUCUGAGAGAAAUGCC [G36C U47C], the self-cleavage turned out to be 0.92.

For UACGUAGGUGGUUUUCCCCUGAUAGUGCUAAGGGGCCCGGGAAGUUUGGACUGGGCAGAGCUCAACACAGCGUGGCAAAGUGGCUGUGGCUAGACUGCCUCUCUGGAUUCCUCGUCACUCAGCAGGGCAUCUCUGAGAGAAAUGCC [G36C U39G], the self-cleavage worked out at 0.76.

For the variant UACGUAGGUGGUUUUCCCCUGAUAGUGCUAAGGGGCCCUGGAAGUUUGGACUGGGCAGAGCCCAACACAGCGUGGCAAAGUGGCUGUGGCUAGACUGCCUCUCUGGAUUCCUCGUCACUCAGCAGGGCAUCUCUGAGAGAAAUGCC [G36C U62C], the self-cleavage amounted to 0.05.

Consider UACGUAGGUGGUUUUCCCCUGAUAGUGCUAAGGGGUCCUGGAAGUUUGGACUGGGCAGAGCUCAACACAGCGUGGCAAAGUGGCUGUGGCUAGACUGCCUCUCUGGAUUCCUCGUCACUCAGCAGGGCAUCUCUGAGAGAGAUGCC [G36U A141G], for which the self-cleavage is 0.91.
